To fix the notation:
B1: CPEB3 Ribozyme (parent)
chain: UAACAGGGGGCCACAGCAGAAGCGUUCACGUCGCAGCCCCUGUCAGAUUCUGGUGAAUCUGCGAAUUCUGCUGUAUAUCUC

Variants of B1 are the subject of this series. In words: self-cleavage, relative activity (ratio to wild type); higher = more cleavage; in vitro, sequencing. The essentials:
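Relative activity was defined as the cleaved/total read fraction for a variant divided by the same fraction for the unmutated ribozyme. CPEB3 self-cleaving ribozyme libraries were made by rounds of error-prone PCR, barcoded, and transcribed in vitro with T7 RNA polymerase for 5 hours at 37°C, and cleavage ran through transcription plus a 15 min DNase I step before EDTA. Illumina sequencing of template-switched reverse transcripts gave the reads, and DNA sequencing mapped the barcodes. Averages come from three batches, using variants with at least 5 reads.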
A18G U43A: the self-cleavage turned out to be 0.72.
The same measure for A18G U43C: 0.35; for A18G U43G: 0.36.
As to A18C U51A, the self-cleavage is 0.42.
Regarding A18C U51C, the self-cleavage worked out at 0.36.
The same measure for A18U C23U: 0.23; for A18U C23G: 0.22; for A18U C23A: 0.1.
On to G19A, for which the self-cleavage is 0.29.
The same measure for A18G C39U: 0.52; for A18G C39G: 0.21; for A18G C39A: 0.47.
Under A18G U58C stands 0.28.
The same measure for A18G U58G: 0.28.
Take A18G U58A: the self-cleavage was 0.21.
For A18U U72C, the self-cleavage came out at 0.42.
The same measure for A18U U72A: 0.19.
Turning to A18U U72G, the self-cleavage is 0.5.
The same measure for A18C U54C: 0.32.
Under A18C U54A stands 0.37.
The same measure for A18U U54C: 0.32.
Consider A18U U54G, for which the self-cleavage came to 0.34.
The same measure for A18U U54A: 0.54.
As to A18U G36U, the self-cleavage was 0.19.
Under A18C U74G stands 0.31; under A18C U74C, 0.58; under A18G G36A, 0.31.
Consider A18G G36C, for which the self-cleavage is 0.13.
A18G C37A: the self-cleavage was found to be 0.32.
Under A18U G19A stands 0.15; under A18U G19U, 0.21.
The same measure for A18U G19C: 0.23.
Under A18U G30U stands 0.17; under A18U G30A, 0.15.
Regarding A18U C32A, the self-cleavage came out at 0.17.
On to A18U C32G, for which the self-cleavage came out at 0.17.
The same measure for A18U C32U: 0.08; for A18U C50U: 0.42.
Regarding A18U C50A, the self-cleavage was found to be 0.4.
In the case of A18U, the self-cleavage was 0.4.
Regarding A18G, the self-cleavage was 0.71.
As to A18G U54C, the self-cleavage was 0.57.
Under A18G U54G stands 0.36; under A18G U54A, 0.8.
On to A18G U25C, for which the self-cleavage was 0.26.
A18G U25A: the self-cleavage is 0.38.
The same measure for A18G U25G: 0.17; for A18C U49G: 0.17.
Under A18C U49C stands 0.29.
In the case of G19A A28G, the self-cleavage worked out at 0.2.
Consider A18U C39U, for which the self-cleavage stood at 0.3.
A18U C39A: the self-cleavage was 0.24.
For the variant A18G C44A, the self-cleavage amounted to 0.28.
The same measure for A18G C44G: 0.16.
The same measure for A18G C44U: 0.2.
With A18G A21G, the self-cleavage came out at 0.4.
Under A18G A21C stands 0.4.
Regarding A18G A21U, the self-cleavage was 0.33.
Under A18G G30A stands 0.2; under G19A A56U, 0.12; under G19A A56G, 0.2.
As for A18U G46U, the self-cleavage is 0.2.
Regarding A18U A47U, the self-cleavage was found to be 0.3.
For the variant A18U A47G, the self-cleavage stood at 0.37.
For A18G C40A, the self-cleavage was determined as 0.14.
Under A18G C40U stands 0.44; under A18U G53A, 0.56; under A18U G53U, 0.45.
Under G19A A35U stands 0.17.
The same measure for A18G A77U: 0.78.
In the case of A18G A77G, the self-cleavage worked out at 0.78.
On to A18G A77C, for which the self-cleavage was found to be 0.39.
Consider A18U C34A, for which the self-cleavage came to 0.23.
Turning to A18U C34U, the self-cleavage was determined as 0.25.
A18U A57G: the self-cleavage stood at 0.37.
Under A18U A57U stands 0.33.
Under A18G C79U stands 0.9.
As to A18G C79G, the self-cleavage came to 0.73.
As for A18G C50U, the self-cleavage is 0.63.
Under G19A A21U stands 0.1.
The same measure for A18G C23A: 0.26; for A18G C23G: 0.61.
On to A18G C23U, for which the self-cleavage came out at 0.12.
Under A18G C27G stands 0.41; under A18G C27U, 0.42.
Under A18U A35C stands 0.34; under A18U A35U, 0.22.
As to A18U A35G, the self-cleavage was 0.7.
For the variant A18U U60C, the self-cleavage came out at 0.22.
The same measure for A18U U60A: 0.3; for A18U G73A: 0.61; for A18U G73C: 0.49.
Take A18U U25A: the self-cleavage turned out to be 0.19.
As for A18U U25G, the self-cleavage stood at 0.08.
As to A18U U25C, the self-cleavage was found to be 0.26.
As to A18G A45U, the self-cleavage was 0.35.
Turning to A18G A45C, the self-cleavage is 0.3.
As for A18G A45G, the self-cleavage came to 0.46.
The same measure for A18G U80C: 0.86.
The same measure for A18G U80A: 0.9; for A18G U31A: 0.41; for A18G U31C: 0.3.
The same measure for A18U U51C: 0.42.
A18U U51A: the self-cleavage worked out at 0.41.
Under A18G C59U stands 0.43.
Under A18G C59G stands 0.25; under A18G C59A, 0.23.
For A18U U26G, the self-cleavage was determined as 0.07.
For A18U U26A, the self-cleavage was determined as 0.31.
The same measure for A18U U26C: 0.26; for A18U U43C: 0.26; for A18U U43A: 0.64.
A18U U43G: the self-cleavage was 0.14.
Under A18G G42U stands 0.27.
For the variant A18G C62A, the self-cleavage is 0.23.
Under A18G C62G stands 0.13; under A18G C62U, 0.32.
Under A18U U49C stands 0.22; under A18U U49A, 0.38.
For A18U G63U, the self-cleavage amounted to 0.57.
With A18U G63C, the self-cleavage amounted to 0.37.
Turning to A18U G63A, the self-cleavage was determined as 0.48.
Turning to A18G G61A, the self-cleavage was determined as 0.3.
For A18U U78A, the self-cleavage amounted to 0.36.
The same measure for A18U U78C: 0.38; for A18U G42C: 0.18; for A18U G42A: 0.36.
On to A18G G53U, for which the self-cleavage worked out at 0.56.
The same measure for A18G G53A: 0.9.
As to A18C U48C, the self-cleavage turned out to be 0.25.
Under A18C U48A stands 0.2; under A18U A65G, 0.28.
On to A18U A65U, for which the self-cleavage came to 0.2.
Under A18C U60C stands 0.28; under A18C U60A, 0.23; under A18G U60C, 0.28.
Regarding A18G U60G, the self-cleavage was determined as 0.14.
On to A18G U60A, for which the self-cleavage was 0.38.
Under A18G C81A stands 0.55; under A18G C29A, 0.26.
The same measure for A18G C29U: 0.42; for A18G U48A: 0.16.
The same measure for A18G U48C: 0.31; for A18G G52U: 0.83.
On to A18G G52A, for which the self-cleavage came to 0.82.
The same measure for A18G G52C: 0.94; for A18U U31C: 0.26.
Consider A18U U31G, for which the self-cleavage was found to be 0.17.
Consider A18U U31A, for which the self-cleavage was determined as 0.3.
Under A18U G52U stands 0.39.
Turning to A18U G52A, the self-cleavage is 0.39.
The same measure for A18G U69A: 0.48; for A18G U69G: 0.49; for A18G U69C: 1.18.
As for A18G U78A, the self-cleavage amounted to 0.82.
The same measure for A18G U78C: 0.82; for A18G U78G: 0.53; for A18C U69A: 0.52.
The same measure for A18C U69C: 0.35; for A18U U66C: 0.29.
The same measure for A18U U66A: 0.29; for A18C U26C: 0.44; for A18G A47G: 0.66.
Consider A18G A47U, for which the self-cleavage was found to be 0.44.
Turning to A18G A47C, the self-cleavage turned out to be 0.12.
The same measure for A18G U72G: 0.29.
As to A18G U72C, the self-cleavage was found to be 0.68.

(Values after the RNAGym collection of RNA variant scans (doi:10.1093/nar/gkz1192).)
